Data from publication PMC6940986, “Structural Insights into the Intracellular Region of the Human Magnesium Transport Mediator CNNM4” (International Journal of Molecular Sciences, 2019).
Where a chain is given by its changes, count along the chain named. In names and notes the source's numbering stands.

B1: CNNM4_(BAT-cNMP-Ctail) (complete intracellular region of human CNNM4, residues 356-775) (domain or fragment, UniProt Q6P4Q7 356-775, looked up)
chain: KEELNMIQGALELRTKTVEDIMTQLQDCFMIRSDAILDFNTMSEIMESGYTRIPVFEDEQSNIVDILYVKDLAFVDPDDCTPLKTITRFYNHPVHFVFHDTKLDAMLEEFKKGKSHLAIVQKVNNEGEGDPFYEVLGLVTLEDVIEEIIKSEILDESDMYTDNRSRKRVSEKNKRDFSAFKDADNELKVKISPQLLLAAHRFLATEVSQFSPSLISEKILLRLLKYPDVIQELKFDEHNKYYARHYLYTRNKPADYFILILQGKVEVEAGKENMKFETGAFSYYGTMALTSVPSDRSPAHPTPLSRSASLSYPDRTDVSTAATLAGSSNQFGSSVLGQYISDFSVRALVDLQYIKITRQQYQNGLLASRMENSPQFPIDGCTTHMENLAEKSELPVVDETTTLLNERNSLLHKASHENAI
notes: CNNM4, human, UniProtKB/Swiss-Prot Q6P4Q7, residues 356-775 (Bateman module, linker, cNMP domain and C-terminal tail); Cloned into pHIS-Parallel2; also called hCNNM4_(BAT-cNMP-Ctail); full intracellular region; source: E. coli BL21 (DE3), purified (HisTrap, TEV, second Ni-NTA, Superdex 75); not shown: His6, N-terminal, cleaved
B2: CNNM4_(BAT-cNMP-Ctail) F631A mutant (domain or fragment, human, UniProt Q6P4Q7 356-775, looked up)
chain: B1 chain with F276A
notes: CNNM4, human, UniProtKB/Swiss-Prot Q6P4Q7, residues 356-775 with F631A; also called F631A mutant of CNNM4_(BAT-cNMP-Ctail)
B3: PRL-1 (phosphatase of regenerating liver 1) (enzyme)
chain: MARMNRPAPVEVTYKNMRFLITHNPTNATLNKFIEELKKYGVTTIVRVCEATYDTTLVEKEGIHVLDWPFDDGAPPSNQIVDDWLSLVKIKFREEPGCCIAVHCVAGLGRAPVLVALALIEGGMKYEDAVQFIRQKRRGAFNSKQLLYLEKYRPKMRLRFKDSNGHRNNCCIQ
notes: PRL-1, phosphatase of the regenerating liver; The methods give no source or construct for PRL-1
B4: CNNM4_(cNMP) (human CNNM4 cyclic nucleotide monophosphate binding-like domain, residues 545-730) (domain or fragment, UniProt Q6P4Q7 545-730, looked up)
chain: KISPQLLLAAHRFLATEVSQFSPSLISEKILLRLLKYPDVIQELKFDEHNKYYARHYLYTRNKPADYFILILQGKVEVEAGKENMKFETGAFSYYGTMALTSVPSDRSPAHPTPLSRSASLSYPDRTDVSTAATLAGSSNQFGSSVLGQYISDFSVRALVDLQYIKITRQQYQNGLLASRMENSPQ
modifications: SeMet labeled in the crystals
notes: CNNM4, human, UniProtKB/Swiss-Prot Q6P4Q7, residues 545-730 (cNMP domain only, without the C-terminal tail); Cloned into pHIS-Parallel2; In solution a concentration dependent mixture of monomers and dimers; also called hCNNM4_(cNMP); CNNM4_(545-730); source: E. coli BL21 (DE3), purified (HisTrap, TEV, second Ni-NTA, Superdex 75); SeMet derivative from E. coli B834 (DE3) for the crystals; not …

Key:
[1] = target: the molecule itself; assay: SEC-MALS; Superdex 200 10/300 GL, 25 C, 20 mM HEPES pH 7.4, 200 mM NaCl, 1 mM TCEP; 100 uL injected at 1 and 10 g/L; monomer to dimer
[2] = target: B1; assay: SEC-SAXS; KW-403 size-exclusion column online, 20 C, 20 mM HEPES pH 7.4, 200 mM NaCl, 1 mM DTT; samples about 5 mg/mL; CNNM4_(BAT-cNMP-Ctail) and its complex with PRL-1 each without and with 5 mM MgATP; oligomeric state from Porod volume, Rg, Dmax; settings: both partners purified

Binder	stoichiometry N [1]	also measured
B1	2	–
B2	–	binding result [1]: binds
B3	–	stoichiometry N [2]: 2 PRL-1 molecules per CNNM4_(BAT-cNMP-Ctail) dimer
B4	2	–
